In US20120149645A1, “COMPOSITIONS AND MODULATION OF MYOCYTE ENHANCER FACTOR 2 (MEF2)” (EMORY UNIVERSITY, priority 2010, published 2012):

Key:
Format in all cases: cell-based, mouse
MEF2D and ND6 proteins = experiment: Western blotting of MEF2D, ND6 and PGC1 protein levels in SN4741 cells; details: construct over-expressed in SN4741 cells
Text: (§1) (A) Mitochondria-targeting MEF2D (Mt2D) and mitochondria-targeting dominant-negative MEF2D (Mt2Ddn), which lacks the transactivation domain (TAD). […] Control indicates the control vector group. (C) Effects of Mt2D or Mt2Ddn on ND6 expression in SN4741 cells. Over-expression of Mt2Ddn in SN4741 cells reduced ND6 but not PPAR-γ coactivator 1 (PGC1) expression by western blotting (n=4, **p<0.01). Control indicates the control vector group. (D) Effects of over-expression of Mt2D or Mt2Ddn on mRNA levels of mitochondria encoded genes. […] Control indicates the control vector group. (E) Effects of Mt2D or Mt2Ddn on mtDNA L-strand transcription initiation in vitro (n=3; **P<0.01). A human mtDNA fragment containing mitochondrial L-strand promoter (LSP) and ND6 gene was used in the in vitro transcription assay. […] (F) Effects of Mt2D or Mt2Ddn on mtDNA de novo transcription in vivo (n=3; **P<0.01). Control (−) is without primers. Control (+) indicates the control vector group.
(§2) (A) Reduced binding of MEF2D to ND6 after neurotoxin treatment. SN4741 cells were treated with MPP+ (25 μM) or rotenone (Rot, 100 nM) for 12 hours. […] Control indicates untreated. […] Control indicates untreated. (C) Immunocytochemical analysis of mitochondrial MEF2D after MPP+ and rotenone treatment. SN4741 cells treated as described in (A) were stained (scale bar, 10 μm). […] Experiments were repeated four times. Control indicates untreated. […] SN4741 cells were treated with MPP+ after infection with the control, Mt2Ddn or Mt2DVP16 or MtND6 lentiviruses for 24 hours (upper graph: different doses of MPP+ for 24 hours; lower graph: 5 μM of MPP+ for different times). Cell viability was measured by WST-1 assay (n=4; *p<0.05; **P<0.01). Control indicates the control vector group.
(A) Diagrams of Mt2DVP16 and MtND6. Mt2DVP16 was constructed by fusion of transactivation domain (TAD) of VP16 with DNA-binding domain of MEF2D and a mitochondria-targeting sequence (Mito). […] (C) Over-expression of Mt2DVP16 attenuated MEF2D siRNA-induced reduction of ND6 expression (n=3, **P<0.01).

SN4741 cells = experiment: WST-1 cell viability assay
Experimental: as §2
WST-1 assay was done using a kit (cat. no. 11644807001) from Roche and following procedures provided by the manufacturer. WST-1 (4-[3-(4-Iodophenyl)-2-(4-nitrophenyl)-2H-5-tetrazolio]-1,3-benzene disulfonate) is a water-soluble tetrazolium salt whose cleavage by cellular enzymes correlates with cell viability. Cells were seeded in 96-well plates and treated as indicated. Than 10 μl/well of premixed WST-1 Cell Proliferation Reagent was added, and the cells were incubated for an additional 4 hr under the same conditions. Absorbance at 450 nm was measured on a multi-well plate reader (Bio-Tek).

mitochondrial complex I = experiment: Mitochondrial complex protein level and activity (BN-PAGE, in-gel staining, quantitative assays); details: over-expression in SN4741 cells
Text: (A) Requirement of mitochondrial MEF2D for complex I activity. […] Control indicates the control vector group. (B) Over-expression of ND6 rescued complex I activity reduced by Mt2Ddn. Control indicates the control vector group. (C) Measurement of various complex activities. […] Control indicates the control vector group. (D) Effects of over-expression of Mt2D or Mt2Ddn on mitochondrial function. Mt2Ddn reduced cellular ATP level and elevated H2O2 production in SN4741 cells (n=4; *p<0.05; **P<0.01). Control indicates the control vector group.
Mitochondrial complex I activity was evaluated initially by blue native-polyacrylamide gel electrophoresis (BN-PAGE) and in-gel activity staining. This assay measures total complex I activity. Rotenone sensitive complex I activity and activities of other mitochondrial complexes were further measured by methods described by Antoni et al., J Biol Chem, 1998, 273:14210-14217. Briefly, parallel assays were performed to measure complex I activity at 340 nm using 2,3-dimethoxy-5-methyl-6-n-decyl-1,4-benzoquinone (DB) (50 μM) as acceptor and NADH (0.8 mM) as donor, in 50 mM Tris (pH 8.0) buffer supplemented with 5 mg/ml BSA either without or with the addition of 4 μM rotenone, which gave total and rotenone insensitive complex I activities, respectively. The difference in value between the two provided a quantified measure of the rotenone-sensitive activity. Mitochondrial membrane potential was detected using a kit (cat. no. 280002) from Stratagene following the procedures provided by the manufacturer. The fluorescent dye JC-1 (5,5′,6,6′-tetrachloro-1,1′,3,3′-tetraethylbenzimidazolyl carbocyanine iodide) stains mitochondria red in a membrane potential dependent manner. Briefly, cells were seeded in 96-well plates at 4×10^4 cells/well with 100 μl culture medium and incubated at 33° C. with 5% CO2. After treatment, 10 μl/well of premixed JC-1 staining solution was added, and the cells were incubated for an additional 30 min under the same conditions. After thorough washes, 100 μl assay buffer was added to each well. Fluorescence signal was detected with excitation and emission at 520 nm and 590 nm, respectively, on a multi-well plate reader (Bio-Tek). Cellular ATP and H202 were measured by Bioluminescent Somatic Cell ATP Assay Kit (Sigma) and Hydrogen Peroxide Assay Kit (Cayman), respectively.

ND6 = experiment: In organello de novo transcription assay; details: mitochondria isolated from SN4741 cells infected with lentivirus for 24 hour
Text: as §1
SN4741 cells were infected with Mt2D or Mt2Ddn lentiviruses for 24 hour. De novo transcription was measured in isolated mitochondria as described previously (46, 47). The mitochondrial fraction was suspended in transcription buffer containing 25 mM sucrose, 75 mM sorbitol, 100 mM KCl, 10 mM K2HPO4, 50 mM EDTA, 5 mM MgCl2, 1 mM ADP, 10 mM glutamate, 2.5 mM malate, and 10 mM Tris-HCl (pH7.4), with 1 mg of BSA per ml. […]

[1] = non-denature gel electrophoresis

B1: Mt2Ddn: Mitochondria-targeting dominant-negative MEF2D: mouse MEF2D 1-131aa with mitochondria-targeting signal, lacks the transactivation domain (protein, UniProt Q63943 1-131, looked up, fragment)
chain: MGRKKIQIQRITDERNRQVTFTKRKFGLMKKAYELSVLCDCEIALIIFNHSNKLFQYASTDMDKVLLKYTEYNEPHESRTNADIIETLRKKGFNGCDSPEPDGEDSLEQSPLLEDKYRRASEELDGLFRRY
modifications: mitochondria-targeting signal added
B1 was tested, and the “ND6 protein level / expression” value (MEF2D and ND6 proteins) was “marked reduction”, the “level of PGC1 (nuclear target of MEF2)” value (MEF2D and ND6 proteins) was “did not alter” and the “sensitivity of cells to low dose MPP+ toxicity” value (SN4741 cells; SN4741 cells infected with lentivirus 24 hours, then different doses of MPP+ for 24 hours) was “clearly sensitized”. The “cellular viability over time” value (SN4741 cells; SN4741 cells infected with lentivirus, 5 μM MPP+ for different times) was “impaired”, the “mitochondrial complex I activity” value (mitochondrial complex I) was “significantly reduced” and the “protein level of complex II-V” value (mitochondrial complex I; [1]) was “no effect”. The “protein level of mitochondrial complex I” value (mitochondrial complex I; [1]) was “markedly reduced” and the “de novo transcription of ND6” value (ND6) was “reduced”.
